Experimental findings from patent US20180066058A1 are described below.

pIC50: −log10 of the molar value.

For experiment [1], the target named is human ICOS-mFc (Chimerigen) (human) (UniProt Q9Y6W8). Briefly: HTRF neutralisation of Alexa 647 human B7-H2 binding to human ICOS-mFc; hamster IgG, run with the IgG4.PE mAbs; mean, n = 4. In general terms: Time-resolved FRET reads energy transfer from a long-lived donor to a nearby acceptor.
Experiment [2] addresses mouse ICOS-mFc (Chimerigen) (mouse) (UniProt Q9WVS0). Briefly: HTRF neutralisation of Alexa 647 mouse B7-H2 binding to mouse ICOS-mFc; hamster IgG, run with the IgG4.PE mAbs; mean, n = 3.
For experiment [3] the target is unchanged. Briefly: HTRF neutralisation of Alexa 647 mouse B7-H2 binding to mouse ICOS-mFc; hamster IgG, run with the IgG1 mAbs; mean, n = 3.
The target is the same in experiment [4]. The experiment in a line: HTRF neutralisation of Alexa 647 mouse B7-H2 binding to mouse ICOS-mFc; hamster IgG, run with the IgG1 mAbs.
For experiment [5], the target named is human ICOS-mFc (Chimerigen) (human) (UniProt Q9Y6W8). Briefly: HTRF neutralisation of Alexa 647 human B7-H2 binding to human ICOS-mFc; hamster IgG, run with the IgG1 mAbs; mean, n = 4.

Chain of mouse ICOS-mFc (Chimerigen) (mouse) (Q9WVS0 21-141 limits assumed, change not shown): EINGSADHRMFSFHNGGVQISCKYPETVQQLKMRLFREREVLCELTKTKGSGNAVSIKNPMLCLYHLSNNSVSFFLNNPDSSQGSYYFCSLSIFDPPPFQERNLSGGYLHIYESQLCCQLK
Chain of human ICOS-mFc (Chimerigen) (human) (Q9Y6W8 21-140, change not shown): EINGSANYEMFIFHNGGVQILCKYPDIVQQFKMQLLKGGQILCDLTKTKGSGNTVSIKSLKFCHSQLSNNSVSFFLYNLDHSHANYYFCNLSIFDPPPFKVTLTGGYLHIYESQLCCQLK

As usually defined, the pIC50 is the IC50 on a negative log10 scale, so that one unit is a factor of ten. The low end stands for a large IC50, the high end for a small IC50. As for “Anti-ICOS antibody C398.4A (hamster IgG)”, the negative logarithm of the IC50 (pIC50) in experiment [1] is 8.55; in experiment [2], 9.70; in experiment [3], 10.00; in experiment [4], 9.85; in experiment [5] it was 8.92.
